The RNAGym collection of RNA variant scans (doi:10.1073/pnas.2313332121)

B1: TPR t1 (parent)
chain: GACCAAUCUGCCCUCAGAGCUCGAGAACAUCUUCGGAUGCAGAGGAGGCAGGCUUCGGUGGCGCGAUAGCGCCAACGUCCUCAACCUCCAAUGCAUCCCACCACAUGAUGAUGCCUGAAGAGCCUUGGUUUUUUG

Variants of: B1
Assay: polymerase ribozyme fitness, log enrichment relative to wild type (log ratio); higher = more active; in vitro selection for triplet polymerase activity
In short: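 Fitness measures genotype enrichment against wild-type enrichment on a logarithmic scale, with inverse-variance-weighted averaging of replicates. The logarithm is base 2, and genotypes were kept only with ≥10 input reads and ≥1 read per output in Illumina sequencing. The sequenced libraries came from one triplicate in vitro selection round, including frozen incubation at −7 °C, of PCR-built, transcribed mutant libraries of each subunit of a heterodimeric triplet polymerase ribozyme.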

Point of comparison: C13G C62U G113A, “polymerase ribozyme fitness (log ratio)” value -2.67. Against it:
- C13G C62G U87C A121C — lower, -3.3
- C13G G69A C124A G128A — lower, -4.44
- C12U U81G — higher, -2.24
- C13G C64U A95G U112C C124U — higher, 0.563
- C13G G47A C72U G110C — lower, -7.11
- C13A A37G — higher, -2.27
- C13A C73U C79U U132A — higher, -1.98
- C13G C72G — higher, -0.869
- C13G C72A — higher, -0.649
- C13G G36C C56A U78A A90G G135U — lower, -4.08
- C13G A50C C53G U96G — lower, -3.94
- C13A G42U C72G — lower, -3.63
- C13A A43G G110A C124G G128A — lower, -6.67
- C13G A84C C102U — within 0.2 log units, -2.71
- C13G A18U A27G C53U C70U C89A C104U — lower, -5.81
- C13G G47U C73U C114A — lower, -4.1
- C13A G93U C98U — lower, -4.03
- C13A U38A A46U C70G A121U — lower, -5.9
- C13A C123A — higher, -0.742
- C13A U21C C62G — within 0.2 log units, -2.82
- C13A G60U C72U A91U G120A — higher, -2.35
- C13G C72U U132A — within 0.2 log units, -2.7
- C13A A90G — higher, -1.55
- C13A U21G G63A — lower, -4.73
- C12U U33G C123G — lower, -4.3
- C13A C79G C123A U129G — lower, -3.45
- C13A U87A G113A — higher, -2.16
- C13A G39C — higher, -2
- C13A G44C U116G C124G — within 0.2 log units, -2.72
- C13A A16U C72U G93A — lower, -3.35
- C13G C28U C101U — lower, -4.7
- C13A C53U G120U — higher, -1.1
- C13G C72G C123U G135U — higher, -0.121
- C13A A50C G52U G93C — lower, -4.43
- C13A U33G C124G — lower, -4.34
- C13G C73A A90C U92C U126A — lower, -5.92
- C13A A18C G36A G42U A84C — lower, -4.45
- C13G U32C A37G C49U — higher, -1.77
- C13G A41U G117C — lower, -5.86
- C13G C49A — higher, -1.26
- C13G C89G — lower, -3.05
- C13G C56G C72G C88A G110C — lower, -6.47
- C13G U32C — higher, -2.08
- C13G A50G U106A C124A G127U — higher, 1.19
- C13G G120A — higher, -0.711
- C13A A41C C73G — lower, -4.43
- C12U U87C A103U G120A — higher, -1.81
- C13G G47A G63U U96G — lower, -3.63
- C13G C62A C82A — lower, -3.18
- C13G C124A G128U — higher, -0.0372
- C13G C56U U112C — higher, 0.0684
- C13G C102A — lower, -3.6
- C13G G39A — within 0.2 log units, -2.78
- C13G G39U — higher, -2.13
- C13G C72U C94U C101G — lower, -4.88
- C13A C62U — higher, -2.18
- C13A C53G C70U — higher, -2.31
- C13A G48A G69A C114U U129A — lower, -6.99
- C13G U78C — higher, -0.825
- C13G U59G G61U U112C — higher, -1.62
- C12U U130A — higher, -0.0283
- C12U U112A C115A — higher, 1.79
- C13G A18U A27G C53U C89A C104U — lower, -5.29
- C13G A121U — higher, 0.0945
- C13A C70G G93A C104A G110C — lower, -6.34
- C13A G42A G69U A111C U116A U129G — lower, -4.99
- C13G A29C U54A A105C U106A — lower, -3.03
- C13A C15U G51A C94U — lower, -5.17
- C13A G36A G63A C80U — lower, -3.86
- C13G G19U C73U G113U — lower, -5.86
- C13G A105U U112C — higher, -2.47
- C13A A18U G42U G61U C123G — higher, -0.471
- C13A A26C C56A G60U C88U G113U C115U — lower, -6.95
- C13A G63A C72U G127C — lower, -3.45
- C13A C101A — within 0.2 log units, -2.54
- C12U U33G — lower, -5.61
- C13G U78C A121C — higher, 0.61
- C13A G60U — higher, -1.81
- C13G G69U G113A — higher, -2.1
- C13A A26G C53U C104U — lower, -5.09
- C13G A46C U78C C86A — lower, -4.39
- C13G C82G C102A — lower, -4.14
- C13A C49U C53G G61U — lower, -3.09
- C13A U14C A16C C115A A119G — higher, -2
- C13G C49A C72U C88A — within 0.2 log units, -2.56
- C13G A18C U38G C88A A121U — lower, -3.5
- C13G C62U G120U — higher, -0.935
- C13A C99A — lower, -6.93
- C13A C40U C72U — higher, -2.43
- C13G C70U — higher, -1.62
- C13A C15G U106A — lower, -3.48
- C13G C62G — lower, -3.43
- C13G C62A — higher, -1.11
- C13G G48A G63A A83C — lower, -3.74
- C13G C124U — higher, 0.0672
- C13A A46U U106C — within 0.2 log units, -2.81
- C13G C40G C85G C89G C123G — lower, -4.99
- C12U U125A — higher, 0.114
- C13G G51U A84C G127U — lower, -6.59
- C13G G17U A18U C40G C56A G107A C114U — lower, -6.86
- C13A C20U — lower, -3.77
- C13A A16U U116G — higher, -1.13
- C13A G63U C70U — higher, -0.406
- C13G A24G G48A G63C C86G U109A — lower, -6.58
- C13G C15U C40U G117U G120A — within 0.2 log units, -2.61
- C13G C22U — lower, -3.6
- C13G G57C C72U G113A — lower, -2.96
- C13G G93A G113C A118U — lower, -5.1
- C13G A16U C56U A105G A111C — lower, -4.91
- C13A C49G — higher, -1.06
- C13A C49U — higher, -1.33
- C13A C53U C56U U59G — higher, -2.18
- C13A G17U — lower, -4.98
- C12U U78C — higher, -0.312
- C13A A50G C62A — lower, -3.49
- C13A A108G — lower, -5.35
- C13A C40U C49G C88A — lower, -3.8
- C13G A118U — higher, -1.02
- C13A U21A G47U U109A — lower, -5.74
- C13A A91C U96C — within 0.2 log units, -2.79
- C13A G60A C102U A118C G120U — lower, -2.89
- C13G C56G C88A G110C — lower, -5.35
- C13G G44A G63U G120U C123G — higher, -0.471
- C13A G52U U54C C70U C124U — higher, -1.03
- C12U U38C G42U G61A U96A G122U — lower, -4.37
- C13A U21C A50U C98U U106A C115U — lower, -6.68
- C13A A103U U109A U125A U131G — lower, -6.73
- C13A G57U — higher, -1.78
- C13A C40U C62A C123G — higher, -0.545
- C13A A16G U133G — within 0.2 log units, -2.57
- C13G C56G — higher, -2.09
- C13A A43G C70G U116C G117U — lower, -6.51
- C13G G17U U38A C49G G61U — lower, -4.63
- C13A A84U G93U G117U — lower, -6.66
- C13A C22A C31A A46U G71A G120A — lower, -6.56
- C13A G52U C53U — lower, -3.61
- C12U U92C — higher, -1.15
- C13G C72G C85A — lower, -3.33
- C13A C76U C82A A103U G110C C114A G117C C123U — lower, -7
- C13G G60A — higher, -1.21
- C13G G60U — higher, -2.05
- C13G G45U C72U C89A G120U U130A — within 0.2 log units, -2.6
- C13A A37C C73U A118U — higher, -1.72
- C13A G69U U129A — higher, -1.63
- C13G C56U C86U U130A — lower, -3.33
- C13G G58U G60C G117U C123A — within 0.2 log units, -2.6
- C13A U32C C49U G61A G77C U92C — lower, -3.43
- C13A C40A G71A — lower, -4.02
- C13G G19U — lower, -4.76
- C13A C102A — lower, -3.7
- C13A G93C — higher, -2.4
- C13G C34A G39A — lower, -5
- C13G A74U — within 0.2 log units, -2.54
- C13G G71C U112C G117C U125C — lower, -5.67
- C13G G25A C56G A91G C99U G120U — lower, -7.51
- C13G C79A C86A — lower, -5.8
- C13A C88G — lower, -3.12
- C13A G23C A50G G113C — lower, -6.66
- C13G A43U A84G A121C U131G — higher, -1.74
- C13A U55C G58A G63A — lower, -3.2
- C13G G19U G71C U112C — lower, -4.61
- C13A G52U U55C — lower, -2.87
- C13A C73A — higher, -1.36
- C13G C62A C94U — lower, -3.01
- C13G G69U — higher, -0.536
- C13G C49A G60A C64U U96A U106G G110A U132C — lower, -6.52
